Measurements reported in PMC5469495, “MicroRNA319-regulated TCPs interact with FBHs and PFT1 to activate CO transcription and control flowering time in Arabidopsis” (PLoS Genetics, 2017).

B1: TCP4-CFP (natural protein, Arabidopsis thaliana, UniProt Q8LPR5 1-420, looked up)
chain: MSDDQFHHPPPPSSMRHRSTSDAADGGCGEIVEVQGGHIVRSTGRKDRHSKVCTAKGPRDRRVRLSAHTAIQFYDVQDRLGFDRPSKAVDWLIKKAKTSIDELAELPPWNPADAIRLAAANAKPRRTTAKTQISPSPPPPQQQQQQQQLQFGVGFNGGGAEHPSNNESSFLPPSMDSDSIADTIKSFFPVIGSSTEAPSNHNLMHNYHHQHPPDLLSRTNSQNQDLRLSLQSFPDGPPSLLHHQHHHHTSASASEPTLFYGQSNPLGFDTSSWEQQSSEFGRIQRLVAWNSGGGGGATDTGNGGGFLFAPPTPSTTSFQPVLGQSQQLYSQRGPLQSSYSPMIRAWFDPHHHHQSISTDDLNHHHHLPPPVHQSAIPGIGFASGEFSSGFRIPARFQGQEEEQHDGLTHKPSSASSISRH
notes: TCP4, Arabidopsis thaliana, At3g15030; FRET donor; source: Arabidopsis protoplast cells, co-expressed
B2: FBH1-YFP (natural protein, Arabidopsis thaliana, UniProt Q9C8P8 1-259, looked up)
chain: MQSTHISGGSSGGGGGGGGEVSRSGLSRIRSAPATWIETLLEEDEEEGLKPNLCLTELLTGNNNSGGVITSRDDSFEFLSSVEQGLYNHHQGGGFHRQNSSPADFLSGSGSGTDGYFSNFGIPANYDYLSTNVDISPTKRSRDMETQFSSQLKEEQMSGGISGMMDMNMDKIFEDSVPCRVRAKRGCATHPRSIAERVRRTRISDRIRRLQELVPNMDKQTNTADMLEEAVEYVKALQSQIQELTEQQKRCKCKPKEEQ
notes: FBH1, Arabidopsis thaliana, At1g35460; FRET acceptor; also called FLOWERING BHLH 1; source: Arabidopsis protoplast cells, co-expressed

Key:
Experiment in all cases: FRET or BRET; FLIM-FRET in Arabidopsis protoplast cells, 24 h after transformation; CFP fusion as donor, YFP fusion as acceptor; CFP lifetime in nuclei; negative controls TCP4-CFP/YFP tauD 2.59 ± 0.39 ns and PFT1-CFP/YFP tauD 2.80 ± 0.28 ns
Settings in all cases: partners not purified
FBH1-YFP = biological target: B2
PFT1-YFP = biological target: T1, PFT1-YFP (Arabidopsis thaliana, UniProt Q7XYY2 1-836)
T1 construct: PFT1 (MED25), Arabidopsis thaliana, At1g25540; FRET acceptor; also called PHYTOCHROME AND FLOWERING TIME 1; MED25; source: Arabidopsis protoplast cells, co-expressed
T1 sequence (looked up): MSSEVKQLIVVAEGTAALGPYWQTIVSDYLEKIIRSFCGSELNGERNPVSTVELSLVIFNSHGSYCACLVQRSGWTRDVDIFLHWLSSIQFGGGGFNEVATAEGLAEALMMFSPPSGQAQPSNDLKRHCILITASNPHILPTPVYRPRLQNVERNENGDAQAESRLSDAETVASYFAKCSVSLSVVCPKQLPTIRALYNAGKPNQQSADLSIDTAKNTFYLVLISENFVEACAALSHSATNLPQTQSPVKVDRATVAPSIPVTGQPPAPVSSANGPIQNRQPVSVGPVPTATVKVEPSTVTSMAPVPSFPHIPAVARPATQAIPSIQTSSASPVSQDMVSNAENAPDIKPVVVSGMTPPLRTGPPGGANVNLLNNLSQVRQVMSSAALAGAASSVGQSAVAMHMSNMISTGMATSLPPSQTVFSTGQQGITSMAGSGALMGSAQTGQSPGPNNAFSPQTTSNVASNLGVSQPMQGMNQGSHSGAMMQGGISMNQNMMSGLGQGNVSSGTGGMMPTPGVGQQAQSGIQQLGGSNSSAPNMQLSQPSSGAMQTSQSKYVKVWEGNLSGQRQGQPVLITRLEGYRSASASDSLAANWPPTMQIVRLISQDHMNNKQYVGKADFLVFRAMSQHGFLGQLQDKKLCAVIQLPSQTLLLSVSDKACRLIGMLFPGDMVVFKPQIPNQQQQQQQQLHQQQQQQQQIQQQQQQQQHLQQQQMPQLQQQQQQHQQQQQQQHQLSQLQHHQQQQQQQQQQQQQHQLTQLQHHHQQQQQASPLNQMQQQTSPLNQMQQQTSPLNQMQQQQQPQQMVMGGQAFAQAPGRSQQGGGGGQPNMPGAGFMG

PFT1-CFP = biological target: T2, PFT1-CFP (Arabidopsis thaliana, UniProt Q7XYY2 1-836)
T2 construct: PFT1 (MED25), Arabidopsis thaliana, At1g25540; FRET donor; also called PHYTOCHROME AND FLOWERING TIME 1; MED25; source: Arabidopsis protoplast cells, co-expressed
T2 sequence (looked up): T1 sequence (looked up)

Binder | average CFP fluorescence lifetime (tauDA) (FBH1-YFP) | average CFP fluorescence lifetime (tauDA) (PFT1-YFP) | average CFP fluorescence lifetime (tauDA) (PFT1-CFP)
B1 | 0.99 ns | 0.9 ns | –
B2 | – | – | 0.95 ns
